{
  "source": "paper PMC2150586",
  "about": "(The Journal of Cell Biology, 1999)",
  "key": {"[1]": {"molecular_target": "T1, GSTCdc24–MBPFar1 complex, isolated by sequential purification on amylose and glutathione resin (S. cerevisiae, UniProt P11433;P21268)", "T1 sequence 1": "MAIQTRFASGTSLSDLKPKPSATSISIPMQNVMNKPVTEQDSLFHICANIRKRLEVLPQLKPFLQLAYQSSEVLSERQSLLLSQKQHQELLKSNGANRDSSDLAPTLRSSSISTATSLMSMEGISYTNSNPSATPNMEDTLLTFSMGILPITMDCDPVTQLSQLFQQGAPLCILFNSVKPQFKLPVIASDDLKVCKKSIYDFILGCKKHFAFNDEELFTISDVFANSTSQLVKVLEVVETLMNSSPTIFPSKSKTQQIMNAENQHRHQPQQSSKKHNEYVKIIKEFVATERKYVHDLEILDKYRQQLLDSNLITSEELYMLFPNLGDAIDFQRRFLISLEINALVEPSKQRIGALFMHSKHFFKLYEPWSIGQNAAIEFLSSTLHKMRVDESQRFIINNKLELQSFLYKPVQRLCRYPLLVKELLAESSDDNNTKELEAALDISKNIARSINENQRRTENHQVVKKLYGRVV", "T1 sequence 2": "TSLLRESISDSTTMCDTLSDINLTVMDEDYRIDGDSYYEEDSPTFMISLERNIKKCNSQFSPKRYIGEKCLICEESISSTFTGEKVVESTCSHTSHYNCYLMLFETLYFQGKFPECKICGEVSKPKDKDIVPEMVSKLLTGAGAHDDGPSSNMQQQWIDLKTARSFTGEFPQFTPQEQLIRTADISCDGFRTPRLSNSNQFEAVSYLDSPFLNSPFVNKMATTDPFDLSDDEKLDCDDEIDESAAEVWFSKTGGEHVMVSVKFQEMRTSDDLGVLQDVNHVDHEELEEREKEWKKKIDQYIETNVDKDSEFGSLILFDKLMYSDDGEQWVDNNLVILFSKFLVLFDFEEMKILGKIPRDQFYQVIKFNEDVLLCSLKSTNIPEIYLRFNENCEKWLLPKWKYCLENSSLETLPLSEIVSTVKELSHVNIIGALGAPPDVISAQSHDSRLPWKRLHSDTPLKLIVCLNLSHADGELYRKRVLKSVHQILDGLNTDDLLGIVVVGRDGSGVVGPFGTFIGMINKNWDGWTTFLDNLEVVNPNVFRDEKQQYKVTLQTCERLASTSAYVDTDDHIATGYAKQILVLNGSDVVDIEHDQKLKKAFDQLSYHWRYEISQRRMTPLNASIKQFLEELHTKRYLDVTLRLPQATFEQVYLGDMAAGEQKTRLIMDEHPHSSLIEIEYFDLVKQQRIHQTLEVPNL", "test": "pull-down"}, "[2]": {"molecular_target": "T2, GSTCdc24 (NH2-terminal 472 amino acids of Cdc24p fused to GST) (S. cerevisiae, UniProt P11433 1-472)", "T2 sequence": "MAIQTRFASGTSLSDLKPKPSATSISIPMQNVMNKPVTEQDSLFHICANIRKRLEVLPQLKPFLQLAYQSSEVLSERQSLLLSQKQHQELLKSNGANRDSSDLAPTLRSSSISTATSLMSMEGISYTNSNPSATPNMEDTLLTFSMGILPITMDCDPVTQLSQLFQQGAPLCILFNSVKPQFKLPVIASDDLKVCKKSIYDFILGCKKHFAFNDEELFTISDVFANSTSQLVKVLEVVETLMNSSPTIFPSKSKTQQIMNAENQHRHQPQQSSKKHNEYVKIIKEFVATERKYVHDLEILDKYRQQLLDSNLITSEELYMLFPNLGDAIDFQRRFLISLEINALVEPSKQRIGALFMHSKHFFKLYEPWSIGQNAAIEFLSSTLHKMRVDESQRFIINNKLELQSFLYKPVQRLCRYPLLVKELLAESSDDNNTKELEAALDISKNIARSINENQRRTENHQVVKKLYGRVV", "test": "pull-down"}},
  "data": [
    {"binder": "HASte4p purified from yeast (from HASte4-(TEV)-protein A, released with TEV protease) (natural protein) MAAHQMDSITYSNNVTQQYIQPQSLQDISAVEDEIQNKIEAARQESKQLHAQINKAKHKIQDASLFQMANKVTSLTKNKINLKPNIVLKGHNNKISDFRWSRDSKRILSASQDGFMLIWDSASGLKQNAIPLDSQWVLSCAISPSSTLVASAGLNNNCTIYRVSKENRVAQNVASIFKGHTCYISDIEFTDNAHILTASGDMTCALWDIPKAKRVREYSDHLGDVLALAIPEEPNSENSSNTFASCGSDGYTYIWDSRSPSAVQSFYVNDSDINALRFFKDGMSIVAGSDNGAINMYDLRSDCSIATFSLFRGYEERTPTPTYMAANMEYNTAQSPQTLKSTSSSYLDNQGVVSLDFSASGRLMYSCYTDIGCVVWDVLKGEIVGKLEGHGGRVTGVRSSPDGLAVCTGSWDSTMKIWSPGYQ", "values": [
      {"measurement": "fold HASte4p bound against a similar amount of GSTCdc24 alone", "setting": "[1]", "value": 2, "unit": "fold"},
      {"measurement": "fold increase of HASte4p bound when MBPFar1 is added", "setting": "[2]", "value": "~2", "unit": "fold"}
    ]}
  ]
}
